The target of experiment [1] is EphA2 Sam (Homo sapiens) (UniProt P29317). The experiment is described as follows: ITC. The settings on record: cited from earlier work.
Experiment [2] deals with Arap3 Sam (Homo sapiens) (UniProt Q8WWN8). The experiment is described as follows: ITC. As to conditions: cited from earlier work.
In experiment [3] the target is T1, Sam domain of Arap3 (Arap3-Sam), His-tag cut away with thrombin (human, UniProt Q8WWN8 1-80).
T1 construct: Arap3, human, residues 1 to 80, encompassing the Sam domain (residues 4 to 68); same construct as m1 after thrombin cleavage of the His-tag; A few vector residues probably remain at the N-terminus after thrombin cleavage; source: E. coli BL21-Gold (DE3), pET15b, purified (nickel column); His-tag cut with thrombin, thrombin removed on a benzamidine column; not shown: His6, N-terminal, cleaved
T1 sequence (looked up): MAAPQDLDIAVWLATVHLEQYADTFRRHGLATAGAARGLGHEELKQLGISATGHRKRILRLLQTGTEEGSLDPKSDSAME
As to the kind of experiment: ITC; 25 C, VP-ITC; Shiptide (1 mM) titrated into Arap3-Sam (75 uM, His-tag cut away); 1 x PBS pH 7.7; one binding site model; repeated twice. As to conditions: both partners purified. On the technique in general: In ITC the heat of successive injections is recorded.

The text below walks through data of publication PMC2755476, “The Sam domain of the lipid phosphatase Ship2 adopts a common model to interact with Arap3-Sam and EphA2-Sam” (BMC Structural Biology, 2009).

EphA2 Sam (Homo sapiens), sequence (P29317 901-971): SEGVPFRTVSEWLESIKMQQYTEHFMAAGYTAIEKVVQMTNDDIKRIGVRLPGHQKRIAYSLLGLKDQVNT

As to Ship2 Sam (from UniProt O15357), the Kd was 750 nM in experiment [1] and 100 nM in experiment [2].

B1: Ship2-peptide Ac-EGLVHNGWDDLEFLSDITEEDL-NH2 (Shiptide) (peptide)
peptide: Ac-EGLVHNGWDDLEFLSDITEEDL-NH2
notes: region of Ship2-Sam, amino acids from 43 to 64. numbers count on: the Ship2-Sam construct, as in PDB 2K4P; source: synthetic peptide; purchased from the Protein/DNA Facility of the Medical College of Wisconsin
As to B1, in experiment [3], the equilibrium dissociation constant (Kd) was found to be 40000 ± 7000 nM, the dH is -2.6 ± 0.922 kcal/mol and the “stoichiometry N” value is 0.8 ± 0.1.

As a reminder, the Kd is the concentration at which binding is half-saturated. A word on the stoichiometry N: it is the number of molecules, sites or subunits per partner or assembly.
